Assay results taken from the supplement of paper PMC5998384.

How the values were obtained:
HeLa Kyoto [1] = experiment: melting temperature (median over replicates), in situ; higher = more thermally stable
HeLa Kyoto [2] = experiment: solubility change mitosis vs G1/S (difference of NP-40 vs SDS log2 ratios) (log2 ratio difference); higher = more soluble in mitosis
HeLa Kyoto [3] = experiment: solubility in G1/S (NP-40 vs SDS abundance) (log2 ratio); higher = more soluble; conditions: cell cycle stage: G1/S
HeLa Kyoto [4] = experiment: thermal stability score vs G1/S (z-score of summed log2 fold changes over temperatures); higher = more thermally stable than in G1/S
[5] = cell cycle stage: early G1 (4.5 h after nocodazole release)
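For melting temperature (median over replicates), in situ in this document: HeLa Kyoto cells synchronized by double thymidine or nocodazole block, proteins quantified by TMT10plex mass spectrometry, three independent biological replicates.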
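For solubility change mitosis vs G1/S (difference of NP-40 vs SDS log2 ratios) in this document: synchronized HeLa Kyoto cells (double thymidine block for G1/S, nocodazole release for mitosis), protein amounts in NP-40 versus SDS lysates quantified by mass spectrometry, three biological replicates.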
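For solubility in G1/S (NP-40 vs SDS abundance) in this document: HeLa Kyoto cells arrested at G1/S by double thymidine block, proteins quantified by TMT10plex mass spectrometry in mild NP-40 versus SDS extracts, three biological replicates.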
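For thermal stability score vs G1/S (z-score of summed log2 fold changes over temperatures) in this document: synchronized HeLa Kyoto cells, proteins quantified by TMT10plex mass spectrometry, three biological replicates, mitosis taken 0.5 h after nocodazole release, G1/S directly after double thymidine block.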

Sequence | melting temperature (HeLa Kyoto [1]; cell cycle stage: G1/S) | melting temperature (HeLa Kyoto [1]; cell cycle stage: mitosis) | solubility change mitosis (log2) (HeLa Kyoto [2]) | solubility in G1/S (log2) (HeLa Kyoto [3]) | thermal stability score (HeLa Kyoto [4]; [5]) | thermal stability score (HeLa Kyoto [4]; cell cycle stage: mitosis)
MSKPELKEDKMLEVHFVGDDDVLNHILDREGGAKLKKERAQLLVNPKKIIKKPEYDLEEDDQEVLKDQNYVEIMGRDVQESLKNGSATGGGNKVYSFQNRKHSEKMAKLASELAKTPQKSVSFSLKNDPEITINVPQSSKGHSASDKVQPKNNDKSEFLSTAPRSLRKRLIVPRSHSDSESEYSASNSEDDEGVAQEHEEDTNAVIFSQKIQAQNRVVSAPVGKETPSKRMKRDKTSDLVEEYFEAHSSSKVLTSDRTLQKLKRAKLDQQTLRNLLSKVSPSFSAELKQLNQQYEKLFHKWMLQLHLGFNIVLYGLGSKRDLLERFRTTMLQDSIHVVINGFFPGISVKSVLNSITEEVLDHMGTFRSILDQLDWIVNKFKEDSSLELFLLIHNLDSQMLRGEKSQQIIGQLSSLHNIYLIASIDHLNAPLMWDHAKQSLFNWLWYETTTYSPYTEETSYENSLLVKQSGSLPLSSLTHVLRSLTPNARGIFRLLIKYQLDNQDNPSYIGLSFQDFYQQCREAFLVNSDLTLRAQLTEFRDHKLIRTKKGTDGVEYLLIPVDNGTLTDFLEKEEEEA [ORC2] | 48.1 °C | 49.2 °C | 0.06 | 0.117 | 1.23 | 1.67
MSLAFKIFFPQTLRALSRKELCLFRKHHWRDVRQFSQWSETDLLHGHPLFLRRKPVLSFQGSHLRSRATYLVFLPGLHVGLCSGPCEMAEQRFCVDYAKRGTAGCKKCKEKIVKGVCRIGKVVPNPFSESGGDMKEWYHIKCMFEKLERARATTKKIEDLTELEGWEELEDNEKEQITQHIADLSSKAAGTPKKKAVVQAKLTTTGQVTSPVKGASFVTSTNPRKFSGFSAKPNNSGEAPSSPTPKRSLSSSKCDPRHKDCLLREFRKLCAMVADNPSYNTKTQIIQDFLRKGSAGDGFHGDVYLTVKLLLPGVIKTVYNLNDKQIVKLFSRIFNCNPDDMARDLEQGDVSETIRVFFEQSKSFPPAAKSLLTIQEVDEFLLRLSKLTKEDEQQQALQDIASRCTANDLKCIIRLIKHDLKMNSGAKHVLDALDPNAYEAFKASRNLQDVVERVLHNAQEVEKEPGQRRALSVQASLMTPVQPMLAEACKSVEYAMKKCPNGMFSEIKYDGERVQVHKNGDHFSYFSRSLKPVLPHKVAHFKDYIPQAFPGGHSMILDSEVLLIDNKTGKPLPFGTLGVHKKAAFQDANVCLFVFDCIYFNDVSLMDRPLCERRKFLHDNMVEIPNRIMFSEMKRVTKALDLADMITRVIQEGLEGLVLKDVKGTYEPGKRHWLKVKKDYLNEGAMADTADLVVLGAFYGQGSKGGMMSIFLMGCYDPGSQKWCTVTKCAGGHDDATLARLQNELDMVKISKDPSKIPSWLKVNKIYYPDFIVPDPKKAAVWEITGAEFSKSEAHTADGISIRFPRCTRIRDDKDWKSATNLPQLKELYQLSKEKADFTVVAGDEGSSTTGGSSEENKGPSGSAVSRKAPSKPSASTKKAEGKLSNSNSKDGNMQTAKPSAMKVGEKLATKSSPVKVGEKRKAADETLCQTKVLLDIFTGVRLYLPPSTPDFSRLRRYFVAFDGDLVQEFDMTSATHVLGSRDKNPAAQQVSPEWIWACIRKRRLVAPC [LIG3] | 46.3 °C | 48.8 °C | 0.0705 | -0.13 | 0.91 | 2.49
MSLKNEPRVNTSALQKIAADMSNIIENLDTRELHFEGEEVDYDVSPSDPKIQEVYIPFSAIYNTQGFKEPNIQTYLSGCPIKAQVLEVERFTSTTRVPSINLYTIELTHGEFKWQVKRKFKHFQEFHRELLKYKAFIRIPIPTRRHTFRRQNVREEPREMPSLPRSSENMIREEQFLGRRKQLEDYLTKILKMPMYRNYHATTEFLDISQLSFIHDLGPKGIEGMIMKRSGGHRIPGLNCCGQGRACYRWSKRWLIVKDSFLLYMKPDSGAIAFVLLVDKEFKIKVGKKETETKYGIRIDNLSRTLILKCNSYRHARWWGGAIEEFIQKHGTNFLKDHRFGSYAAIQENALAKWYVNAKGYFEDVANAMEEANEEIFITDWWLSPEIFLKRPVVEGNRWRLDCILKRKAQQGVRIFIMLYKEVELALGINSEYTKRTLMRLHPNIKVMRHPDHVSSTVYLWAHHEKLVIIDQSVAFVGGIDLAYGRWDDNEHRLTDVGSVKRVTSGPSLGSLPPAAMESMESLRLKDKNEPVQNLPIQKSIDDVDSKLKGIGKPRKFSKFSLYKQLHRHHLHDADSISSIDSTSSYFNHYRSHHNLIHGLKPHFKLFHPSSESEQGLTRPHADTGSIRSLQTGVGELHGETRFWHGKDYCNFVFKDWVQLDKPFADFIDRYSTPRMPWHDIASAVHGKAARDVARHFIQRWNFTKIMKSKYRSLSYPFLLPKSQTTAHELRYQVPGSVHANVQLLRSAADWSAGIKYHEESIHAAYVHVIENSRHYIYIENQFFISCADDKVVFNKIGDAIAQRILKAHRENQKYRVYVVIPLLPGFEGDISTGGGNALQAIMHFNYRTMCRGENSILGQLKAELGNQWINYISFCGLRTHAELEGNLVTELIYVHSKLLIADDNTVIIGSANINDRSMLGKRDSEMAVIVQDTETVPSVMDGKEYQAGRFARGLRLQCFRVVLGYLDDPSEDIQDPVSDKFFKEVWVSTAARNATIYDKVFRCLPNDEVHNLIQLRDFINKPVLAKEDPIRAEEELKKIRGFLVQFPFYFLSEESLLPSVGTKEAIVPMEVWT [PLD1] | 51.6 °C | 51.7 °C | -0.0809 | -0.336 | -0.632 | -0.457
MSLLFSRCNSIVTVKKNKRHMAEVNASPLKHFVTAKKKINGIFEQLGAYIQESATFLEDTYRNAELDPVTTEEQVLDVKGYLSKVRGISEVLARRHMKVAFFGRTSNGKSTVINAMLWDKVLPSGIGHTTNCFLRVEGTDGHEAFLLTEGSEEKRSAKTVNQLAHALHQDKQLHAGSLVSVMWPNSKCPLLKDDLVLMDSPGIDVTTELDSWIDKFCLDADVFVLVANSESTLMQTEKHFFHKVSERLSRPNIFILNNRWDASASEPEYMEEVRRQHMERCTSFLVDELGVVDRSQAGDRIFFVSAKEVLNARIQKAQGMPEGGGALAEGFQVRMFEFQNFERRFEECISQSAVKTKFEQHTVRAKQIAEAVRLIMDSLHMAAREQQVYCEEMREERQDRLKFIDKQLELLAQDYKLRIKQITEEVERQVSTAMAEEIRRLSVLVDDYQMDFHPSPVVLKVYKNELHRHIEEGLGRNMSDRCSTAITNSLQTMQQDMIDGLKPLLPVSVRSQIDMLVPRQCFSLNYDLNCDKLCADFQEDIEFHFSLGWTMLVNRFLGPKNSRRALMGYNDQVQRPIPLTPANPSMPPLPQGSLTQEEFMVSMVTGLASLTSRTSMGILVVGGVVWKAVGWRLIALSFGLYGLLYVYERLTWTTKAKERAFKRQFVEHASEKLQLVISYTGSNCSHQVQQELSGTFAHLCQQVDVTRENLEQEIAAMNKKIEVLDSLQSKAKLLRNKAGWLDSELNMFTHQYLQPSR [MFN2] | 50.8 °C | 51.3 °C | -0.043 | -0.174 | 1.32 | 0.83
